# From publication PMC12691639
# Target: His-K62-HA expressed in E. coli without the eukaryotic N-terminal signal sequence (Saccharomyces paradoxus)
# Assay: denaturing SDS-PAGE and western blot (heat- and detergent-resistant oligomers); E. coli membrane fractions treated with urea before boiling with gel loading buffer; high molecular weight complex taken apart into discrete oligomers
substance,measurement,value
His-K62-HA expressed in E. coli without the eukaryotic N-terminal signal sequence (natural protein),stoichiometry N,> 9
